The labels stand for the following.
B1: TRIB1 (parent)
chain: EIGTSDQIVPEYQEDSDISSFFC
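Also: lentivirally expressed fusions sorted by FACS into six bins by GFP to DsRed ratio, PSI derived from sequencing read proportions per bin multiplied by bin number.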

The variants in this series derive from B1. The series is described as follows: protein stability index of a GFP-peptide fusion (GPS, HEK-293T) (PSI 1-6); higher = more stable. To be noted: c terminus: native.
Turning to EIGTSDQIVPETQEDSDISSFFC, the protein stability index came out at 4.48.

For the variant EIGTSDQIVPEKQEDSDISSFFC, the protein stability index was determined as 5.54.

With EIGTSDQIVPEPQEDSDISSFFC, the protein stability index is 3.4.

Regarding EIGTSDQIVPENQEDSDISSFFC, the protein stability index was found to be 5.03.

On to EIGTSDQIVPEWQEDSDISSFFC, for which the protein stability index is 2.44.

On to EIGTSDQIVPESQEDSDISSFFC, for which the protein stability index turned out to be 4.19.

For EIGTSDQIVPERQEDSDISSFFC, the protein stability index came out at 4.61.

Consider EIGTSDQIVPEEQEDSDISSFFC, for which the protein stability index is 4.77.

Regarding EIGTSDQIVPELQEDSDISSFFC, the protein stability index was found to be 3.06.

With EIGTSDQIVPEQQEDSDISSFFC, the protein stability index is 4.51.

Regarding EIGTSDQIVPEHQEDSDISSFFC, the protein stability index amounted to 4.37.

Turning to EIGTSDQIVPEAQEDSDISSFFC, the protein stability index was determined as 3.25.

Consider EIGTSDQIVPEGQEDSDISSFFC, for which the protein stability index is 3.27.

Regarding EIGTSDQIVPEFQEDSDISSFFC, the protein stability index worked out at 3.07.

For the variant EIGTSDQIVPECQEDSDISSFFC, the protein stability index was determined as 3.68.

Regarding EIGTSDQIVPEVQEDSDISSFFC, the protein stability index is 3.07.

Consider EIGTSDQIVPEDQEDSDISSFFC, for which the protein stability index stood at 5.11.

For the variant EIGTSDQIVPEMQEDSDISSFFC, the protein stability index is 2.12.

In the case of EIGTSDQIVPEIQEDSDISSFFC, the protein stability index came to 2.91.

In the case of EIGTSDQIVPEYQEDSDTSSFFC, the protein stability index was 3.64.

For EIGTSDQIVPEYQEDSDKSSFFC, the protein stability index was 4.39.

With EIGTSDQIVPEYQEDSDFSSFFC, the protein stability index stood at 2.91.

As to EIGTSDQIVPEYQEDSDPSSFFC, the protein stability index came to 2.88.

Turning to EIGTSDQIVPEYQEDSDHSSFFC, the protein stability index came to 3.69.

For EIGTSDQIVPEYQEDSDGSSFFC, the protein stability index is 3.6.

For EIGTSDQIVPEYQEDSDRSSFFC, the protein stability index turned out to be 4.26.

Take EIGTSDQIVPEYQEDSDYSSFFC: the protein stability index was found to be 3.25.

EIGTSDQIVPEYQEDSDDSSFFC: the protein stability index came to 3.36.

Regarding EIGTSDQIVPEYQEDSDVSSFFC, the protein stability index was 3.08.

EIGTSDQIVPEYQEDSDESSFFC: the protein stability index stood at 2.69.

As for EIGTSDQIVPEYQEDSDMSSFFC, the protein stability index was 3.29.

Consider EIGTSDQIVPEYQEDSDSSSFFC, for which the protein stability index was determined as 3.64.

On to EIGTSDQIVPEYQEDSDQSSFFC, for which the protein stability index came to 3.9.

Take EIGTSDQIVPEYQEDSDCSSFFC: the protein stability index came to 3.16.

Regarding EIGTSDQIVPEYQEDSDASSFFC, the protein stability index is 3.4.

For EIGTSDQIVPEYQEDSDLSSFFC, the protein stability index is 2.92.

EIGTSDQIVPEYQEDSDNSSFFC: the protein stability index was 3.75.

For the variant EIGTSDQIVPEYQEDSDWSSFFC, the protein stability index is 2.41.

Take EIGTSDQIVPEYQEHSDISSFFC: the protein stability index worked out at 3.28.

Take EIGTSDQIVPEYQEISDISSFFC: the protein stability index was determined as 2.28.

With EIGTSDQIVPEYQEQSDISSFFC, the protein stability index stood at 2.92.

EIGTSDQIVPEYQEFSDISSFFC: the protein stability index came to 2.24.

With EIGTSDQIVPEYQECSDISSFFC, the protein stability index is 2.62.

For the variant EIGTSDQIVPEYQEGSDISSFFC, the protein stability index worked out at 3.71.

For the variant EIGTSDQIVPEYQEWSDISSFFC, the protein stability index was 2.9.

As to EIGTSDQIVPEYQENSDISSFFC, the protein stability index came to 3.86.

As for EIGTSDQIVPEYQETSDISSFFC, the protein stability index turned out to be 3.4.

On to EIGTSDQIVPEYQEMSDISSFFC, for which the protein stability index was determined as 2.67.

In the case of EIGTSDQIVPEYQERSDISSFFC, the protein stability index came to 4.24.

Consider EIGTSDQIVPEYQEKSDISSFFC, for which the protein stability index stood at 3.42.

In the case of EIGTSDQIVPEYQEVSDISSFFC, the protein stability index was determined as 2.81.

With EIGTSDQIVPEYQESSDISSFFC, the protein stability index is 3.33.

Consider EIGTSDQIVPEYQEPSDISSFFC, for which the protein stability index turned out to be 3.02.

Regarding EIGTSDQIVPEYQEYSDISSFFC, the protein stability index came to 2.48.

With EIGTSDQIVPEYQEESDISSFFC, the protein stability index was determined as 2.2.

As to EIGTSDQIVPEYQELSDISSFFC, the protein stability index is 2.18.

For the variant EIGTSDQIVPEYQEASDISSFFC, the protein stability index was 3.59.

Regarding EIGTSDQIVPEYQEDSIISSFFC, the protein stability index worked out at 3.28.

As to EIGTSDQIVPEYQEDSGISSFFC, the protein stability index was 4.13.

For EIGTSDQIVPEYQEDSQISSFFC, the protein stability index amounted to 2.94.

For the variant EIGTSDQIVPEYQEDSMISSFFC, the protein stability index was determined as 3.16.

In the case of EIGTSDQIVPEYQEDSCISSFFC, the protein stability index stood at 2.92.

Regarding EIGTSDQIVPEYQEDSKISSFFC, the protein stability index was 4.29.

As for EIGTSDQIVPEYQEDSRISSFFC, the protein stability index amounted to 3.48.

In the case of EIGTSDQIVPEYQEDSEISSFFC, the protein stability index is 2.61.

As for EIGTSDQIVPEYQEDSSISSFFC, the protein stability index came to 3.13.

As for EIGTSDQIVPEYQEDSNISSFFC, the protein stability index is 3.26.

As for EIGTSDQIVPEYQEDSAISSFFC, the protein stability index amounted to 3.21.

Take EIGTSDQIVPEYQEDSHISSFFC: the protein stability index was found to be 3.47.

Take EIGTSDQIVPEYQEDSYISSFFC: the protein stability index is 2.99.

Regarding EIGTSDQIVPEYQEDSLISSFFC, the protein stability index turned out to be 3.2.

On to EIGTSDQIVPEYQEDSWISSFFC, for which the protein stability index amounted to 2.42.

Consider EIGTSDQIVPEYQEDSVISSFFC, for which the protein stability index came to 2.87.

For the variant EIGTSDQIVPEYQEDSPISSFFC, the protein stability index was determined as 3.12.

For the variant EIGTSDQIVPEYQEDSFISSFFC, the protein stability index came out at 3.2.

For EIGTSDQIVPEYQEDSTISSFFC, the protein stability index stood at 3.29.

On to EIGTSDQIVPEYQEDSDICSFFC, for which the protein stability index was 2.38.

Consider EIGTSDQIVPEYQEDSDITSFFC, for which the protein stability index came out at 2.35.

For the variant EIGTSDQIVPEYQEDSDIESFFC, the protein stability index came to 2.83.

As to EIGTSDQIVPEYQEDSDIDSFFC, the protein stability index is 2.67.

Turning to EIGTSDQIVPEYQEDSDIQSFFC, the protein stability index was 3.48.

On to EIGTSDQIVPEYQEDSDIVSFFC, for which the protein stability index is 2.72.

Turning to EIGTSDQIVPEYQEDSDIMSFFC, the protein stability index was found to be 1.75.

Regarding EIGTSDQIVPEYQEDSDIKSFFC, the protein stability index worked out at 4.21.

As for EIGTSDQIVPEYQEDSDIWSFFC, the protein stability index was found to be 1.56.

With EIGTSDQIVPEYQEDSDIASFFC, the protein stability index was determined as 3.16.

In the case of EIGTSDQIVPEYQEDSDILSFFC, the protein stability index came out at 2.32.

On to EIGTSDQIVPEYQEDSDIPSFFC, for which the protein stability index was found to be 2.94.

For EIGTSDQIVPEYQEDSDINSFFC, the protein stability index was determined as 2.92.

Consider EIGTSDQIVPEYQEDSDIHSFFC, for which the protein stability index is 2.89.

As to EIGTSDQIVPEYQEDSDIISFFC, the protein stability index stood at 1.83.

EIGTSDQIVPEYQEDSDIGSFFC: the protein stability index is 2.05.

EIGTSDQIVPEYQEDSDIFSFFC: the protein stability index stood at 1.99.

For the variant EIGTSDQIVPEYQEDSDIYSFFC, the protein stability index was 1.84.

For EIGTSDQIVPEYQEDSDIRSFFC, the protein stability index is 3.83.

As to EIGTSDQIVPNYQEDSDISSFFC, the protein stability index was determined as 3.08.

For the variant EIGTSDQIVPIYQEDSDISSFFC, the protein stability index turned out to be 3.43.
